In PMC4363203:

Target: centromere protein A (CENP-A), histone H3 variant (human (endogenous in HcoEpiC, HeLa and SW480)) (UniProt P49450)
Test: co-IP; sequential native CENP-A IP of the chromatin left unbound by the CENP-B IP ('ectopic CENP-A'); SW480 cells; quantitative fluorescent western blot, background-corrected, input-adjusted ratio to the CENP-B IP

UniProt P49450, sequence (P49450 whole entry, change not shown): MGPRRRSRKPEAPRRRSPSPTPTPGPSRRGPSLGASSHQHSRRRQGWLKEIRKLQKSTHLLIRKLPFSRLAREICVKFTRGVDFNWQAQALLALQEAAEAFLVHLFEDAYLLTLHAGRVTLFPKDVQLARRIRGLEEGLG

| Substance | H3 fold enrichment (Seq. CpA IP/CpB IP) | ATRX fold enrichment (Seq. CpA IP/CpB IP) |
| --- | --- | --- |
| canonical histone H3 (from UniProt P68431 1-136) (natural protein) | 2.91 fold |  |
| ATRX, transcription-coupled histone chaperone (from UniProt P46100 1-2492) (natural protein) |  | 0.81 fold |
